Data reported in paper PMC5436050.

Molecular target: H1G101C, a mutant of X. laevis linker histone H1°, labeled with Cy5 (Xenopus laevis) (UniProt P22844)

N-terminally His6-tagged yeast Nap1, sequence (P25293 whole entry): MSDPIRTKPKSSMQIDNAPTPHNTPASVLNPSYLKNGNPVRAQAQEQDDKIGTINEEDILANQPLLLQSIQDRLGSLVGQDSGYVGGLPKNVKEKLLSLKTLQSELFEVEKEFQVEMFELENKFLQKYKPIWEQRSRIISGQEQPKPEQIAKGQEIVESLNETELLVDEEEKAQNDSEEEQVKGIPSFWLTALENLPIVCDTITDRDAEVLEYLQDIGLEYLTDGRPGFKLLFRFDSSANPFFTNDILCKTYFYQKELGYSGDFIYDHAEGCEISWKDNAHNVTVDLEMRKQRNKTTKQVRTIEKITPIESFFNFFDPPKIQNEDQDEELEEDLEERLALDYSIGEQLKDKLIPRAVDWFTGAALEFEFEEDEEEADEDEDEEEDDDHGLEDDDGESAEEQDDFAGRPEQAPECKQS

percent of nucleosomes still bound with H1 with 60 nM Nap1: 17.5%
Substance: N-terminally His6-tagged yeast Nap1 (from UniProt P25293 1-417) (natural protein)
